One block for each binder: values may come before it.
Legend:
- = experiment: BLI; Figure 25B
[1] = molecular target: T1, cynomolgus macaque VISTA polypeptide (ELISA coat) (cynomolgus macaque, UniProt A0A7N9IB00 33-194); experiment: ELISA
T1 chain: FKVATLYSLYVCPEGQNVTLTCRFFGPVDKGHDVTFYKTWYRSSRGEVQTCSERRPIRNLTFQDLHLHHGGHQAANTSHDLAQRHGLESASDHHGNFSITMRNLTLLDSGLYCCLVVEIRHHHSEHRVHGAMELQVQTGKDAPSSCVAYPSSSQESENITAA

[2] = molecular target: human VISTA polypeptide (ELISA coat) (UniProt Q9H7M9 33-194); experiment: ELISA

Kd (-): 455 nM
B1: mFcγRIII (receptor)
chain: ALPKAVVKLDPPWIQVLKEDMVTLMCEGTHNPGNSSTQWFHNGRSIRSQVQASYTFKATVNDSGEYRCQMEQTRLSDPVDLGVISDWLLLQTPQRVFLEGETITLRCHSWRNKLLNRISFFHNEKSVRYHHYKSNFSIPKANHSHSGDYYCKGSLGSTQHQSKPVTITVQDPATTSSISLVWYHT

EC50 [1]: 0.0052 nM
B2: VSTB112 IgG1 (antibody, V domains shown)
VH: QVQLVQSGAEVKKPGSSVKVSCKASGGTFSSYAISWVRQAPGQGLEWMGGIIPIFGTANYAQKFQGRVTITADESTSTAYMELSSLRSEDTAVYYCARSSYGWSYEFDYWGQGTLVTVSS
VL: DIQMTQSPSSLSASVGDRVTITCRASQSIDTRLNWYQQKPGKAPKLLIYSASSLQSGVPSRFSGSGSGTDFTLTISSLQPEDFATYYCQQSAYNPITFGQGTKVEIKR

EC50 [2]: 0.246 nM
B3: anti-VISTA clone 4M2-C12 IgG1 (antibody)
heavy: not shown
light: DIVITQTPAILSTSPGEKVTMTCRASSSVGYIHWYQQKPGSSPKPWIYATSNLASGVPARFSGSGSGTSNSLTITRVEAEDAATYYCQQWSSYPPITFGGGTKLEVKRTVAAPSVFIFPPSDEQLKSGTASVVCLLNNFYPREAKVQWKVDNALQSGNSQESVTEQDSKDSTYSLSSTLTLSKADYEKHKVYACEVTHQGLSSPVTKSFNRGEC

— US20190300610A1 (published 2019)
